The text below walks through data of US12534533B2, “Anti-chemokine like receptor 1 humanized antibodies and their therapeutic applications” (OSE IMMUNOTHERAPEUTICS, priority 2019, dated 2026).

Data set [1] has as its target T1, Biot-C7 peptide (human ChemR23 peptide, SEQ ID No. 60) (Homo sapiens, UniProt Q99788).
T1 construct: purchased synpeptide; host or cells: chemical synthesis
T1 sequence (Q99788 275-307 limits assumed): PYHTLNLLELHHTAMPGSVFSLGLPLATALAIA
Put plainly: activity ELISA assay, binding of biotinylated C7 peptide. The note with it: compared to wild-type 2G1; FIG. 23, FIG. 33. An excerpt:
FIG. 23. Binding recognition of C7 peptide by humanized anti-CMKLR1 derived from 2G1. Binding of C7biot in the supernatant of CHO cells transfected with different combinations of heavy and light chains (VHWT+VLWT: combination of SEQ ID No. 37 and SEQ ID No. 49; HCLC: combination of SEQ ID No. 42 and SEQ ID No.52; HDLC: combination of SEQ ID No. 43 and SEQ ID No.52; HCLD: combination of SEQ ID No. 42 and SEQ ID No.53; HDLD: combination of SEQ ID No. 43 and SEQ ID No.53).
FIG. 24. ED50 of anti-CMKLR1 derived from 2G1 antibody. 2G1 wt: HALA: combination of SEQ ID No. 41 and SEQ ID No. 50; combination of SEQ ID No. 37 and SEQ ID No. 49; HCLC: combination of SEQ ID No. 42 and SEQ ID No.52; HDLC: combination of SEQ ID No. 43 and SEQ ID No.52; HCLD: combination of SEQ ID No. 42 and SEQ ID No.53; HDLD: combination of SEQ ID No. 43 and SEQ ID No.53.
FIG. 33—Binding of purified antibodies on human ChemR23 peptide by ELISA assay (A), with ED50 concentration (ng/ml) (B). For activity ELISA assay, donkey anti-human IgG, Fc specific (Jackson Immunoresearch; USA; reference 709-005-098) was immobilized on plastic at 1.3 μg/ml in borate buffer (pH9) and purified antibody was added to measure binding in BSA1% buffer, compared to wild-type 2G1.
For activity ELISA assay, donkey anti-human IgG, Fc specific (Jackson Immunoresearch; USA; reference 709-005-098) was immobilized on plastic at 1.3 μg/ml in borate buffer (pH9) and purified antibody were added to measure binding in BSA1% buffer, compared to wild-type 2G1.
For activity ELISA assay, donkey anti-human IgG, Fc specific (Jackson Immunoresearch; USA; reference 709-005-098) was immobilized on plastic at 1.3 μg/ml in borate buffer (pH9) and purified antibody was added to measure binding in BSA1% buffer, compared to wild-type 2G1.

The subject of data set [2] is PMN from healthy volunteers. The data set can be described thus: Percentage of dead PMN (mortality of neutrophils) on coated antibodies. It is filed as cell-based, human. The note with it: coated Ab at 10 μg/mL, 24 h; FIG. 26, FIG. 36. The protocol: […] Mortality of PMN was analyzed by incubating PMN with specific markers of the mortality and viability and then counted by picture analysis.
FIG. 36—Increase of dead PMN neutrophils in vitro with anti-ChemR23 antibodies coated. PMN from healthy volunteers were incubated in culture medium with coated HEF-LDT52S, HEF-LEF and HDLD antibody variants at 10 μg/mL for 24 h and stained either with a dead/viability kit (LIVE/DEAD (Invitrogen)). The percentages of positive cells were obtained by analyzing the pictures with Fiji software. Isotype control was added as control.
PMN from healthy volunteers were incubated in culture medium with coated Ab at 10 μg/mL for 24 h or 5 h and stained either with a dead/viability kit (LIVE/DEAD (Invitrogen)) or a specific marker of reactive oxygen species (ROS) respectively. The percentages of positive cells were obtained by analyzing the pictures with ImageJ software.
PMN from healthy volunteers were incubated in culture medium with coated HEF-LDT52S, HEF-LEF and HDLD antibody variants at 10 μg/mL for 24 h and stained either with a dead/viability kit (LIVE/DEAD (Invitrogen)). The percentages of positive cells were obtained by analyzing the pictures with Fiji software. Isotype control was added as control.

A short description of data set [3]: Stability assay (7 days at 4° C. or 37° C.; ELISA and gel filtration). It is filed as physicochemical. The note with it: after 7 days at 37° C.; gel filtration; FIG. 34B. The protocol: FIG. 34—A. Binding of purified antibodies incubated 7 days at 4° C. or 37° C. on human ChemR23 ELISA assay. B. SEC profile by gel filtration chromatography of purified antibodies incubated 7 days at 37° C. Each purified humanized anti-ChemR23 antibody (HALA, HDLD, HD-LDT52S, HEF-LDT52S, HEF-LEF) were incubated for 7 days at 4° C. or 37° C. After 7 days, the binding of purified antibodies was analyzed by ELISA assay and the aggregate formation was analyzed by gel filtration (Superdex 200 10/300GL, GeHealthcare).
Each purified humanized anti-ChemR23 antibody (HALA, HDLD, HD-LDT52S, HEF-LDT52S, HEF-LEF) were incubated for 7 days at 4° C. or 37° C. After 7 days, the binding of purified antibodies was analyzed by ELISA assay and the aggregate formation was analyzed by gel filtration (Superdex 200 10/300GL, GeHealthcare).
(In general: An ELISA detects its analyte on a solid surface through an enzyme-linked reagent.)

For data set [4], the system named is CCR7 expression at the surface of pro-inflammatory macrophages M1. The data set can be described thus: CCR7 expression on M1 macrophages with coated antibodies. It is filed as cell-based, human. The note with it: antibody coated on plate, 48 h, flow cytometry; vs isotype control; FIG. 25, FIG. 35. The protocol: FIG. 25. Inhibition of CCR7 expression on M1 macrophages cells in vitro with anti-ChemR23 antibodies coated. 2G1 and all humanized 2G1 variants (HALA, HCLC, HCLD, HDLC and HDLD) were immobilized on plate. Isotype control were added as controls. Two isotypes which prevent FcRγ binding, i.e., 2G1-N297A (2G1 wt mutated in N297A to reduce FcγR binding), and 2G4 (wt with isotype IgG4mutated in S228P to stabilise hinge region) were also added. Pro-inflammatory macrophages M1 were added on coated plate for 48 h, and CCR7 expression at the surface of the macrophages was measured by flow cytometry.
FIG. 35—Inhibition of CCR7 expression on M1 macrophages cells in vitro with anti-ChemR23 antibody coated. The humanized 2G1 variant HEF-LD-T52S was immobilized on plate. Isotype control were added as controls. Pro-inflammatory macrophages M1 were added on coated plate, and CCR7 expression at the surface of the macrophages was measured by flow cytometry.
MATERIAL AND METHODS. […]
RESULTS. […] Pro-inflammatory macrophages M1 were added on coated plate for 48 h, and CCR7 expression at the surface of the macrophages was measured by flow cytometry.
The humanized 2G1 variant HEF-LD-T52S was immobilized on plate. […] Pro-inflammatory macrophages M1 were added on coated plate for 48 h, and CCR7 expression at the surface of the macrophages was measured by flow cytometry. […]

B1: HDLD: humanized 2G1 variant: combination of SEQ ID No. 43 and SEQ ID No. 53 (antibody, V domains shown)
VH: EVQLVESGGGLVQPGGSLRLSCAASGFTFSSYAMSWVRQAPGKGLELVATINRYGGSTYYAASVKGRFTISRDNSKNTLYLQMNSLRAEDTAVYYCPKLIYYGNEGDSWGQGTLVTVSS
VL: AIQLTQSPSSLSASVGDRVTITCRASQSVSFLHWYQQKPGKAPKRWIYDATKLTSGVPSRFSGSGSGTDFTLTISSLQPEDFATYYCQQWQSKPPLTFGGGTKVEIK
In the case of B1, in data set [1], the “binding activity to antigen-specific peptides (C7 peptide)” value was “even better than the germline antibody HALA and the wild type antibody 2G1”. The “mortality of PMN (percentage of dead PMN)” value in data set [2] is reported as “accelerate the death of PMN”. Besides, the percentage of aggregate result in data set [3] is listed as “did not change”.

B2: HEF-LDT52S: humanized 2G1 variant optimized to reduce immunogenicity: HEF (SEQ ID NO: 91) with LD-T52S (SEQ ID No. 93) (antibody, V domains shown)
VH: EVQLVESGGGLVQPGGSLRLSCAASGFTFSSYAMSWVRQAPGKGLELVSTISGSGGSTYYAASVKGRFTISRDNSKNTLYLQMNSLRAEDTAVYYCPKLIYYGNEGDSWGQGTLVTVSS
VL: AIQLTQSPSSLSASVGDRVTITCRASQSVSFLHWYQQKPGKAPKRWIYDASKLTSGVPSRFSGSGSGTDFTLTISSLQPEDFATYYCQQWQSKPPLTFGGGTKVEIK
As to B2, in data set [4], the “expression of CCR7 at the surface of pro-inflammatory macrophages (M1)” value was “able to decrease expression of CCR7”. The “binding activity to antigen-specific peptides (C7 peptide)” value in data set [1] is given as “high binding activity”. In addition, in data set [2], the “mortality of PMN (percentage of dead PMN)” value is listed as “accelerate the death of PMN”. In data set [3], the percentage of aggregate entry is given as “did not change”.
